Assay results published in patent US20060234940A1.

Target: recombinant human DP IV, wild type (human) (UniProt P27487)
Assay: photometric assay, competition with the standard substrate GP-4NA

Sequence of recombinant human DP IV, wild type (human) (P27487 other isoform, or with tags, fused parts or gaps): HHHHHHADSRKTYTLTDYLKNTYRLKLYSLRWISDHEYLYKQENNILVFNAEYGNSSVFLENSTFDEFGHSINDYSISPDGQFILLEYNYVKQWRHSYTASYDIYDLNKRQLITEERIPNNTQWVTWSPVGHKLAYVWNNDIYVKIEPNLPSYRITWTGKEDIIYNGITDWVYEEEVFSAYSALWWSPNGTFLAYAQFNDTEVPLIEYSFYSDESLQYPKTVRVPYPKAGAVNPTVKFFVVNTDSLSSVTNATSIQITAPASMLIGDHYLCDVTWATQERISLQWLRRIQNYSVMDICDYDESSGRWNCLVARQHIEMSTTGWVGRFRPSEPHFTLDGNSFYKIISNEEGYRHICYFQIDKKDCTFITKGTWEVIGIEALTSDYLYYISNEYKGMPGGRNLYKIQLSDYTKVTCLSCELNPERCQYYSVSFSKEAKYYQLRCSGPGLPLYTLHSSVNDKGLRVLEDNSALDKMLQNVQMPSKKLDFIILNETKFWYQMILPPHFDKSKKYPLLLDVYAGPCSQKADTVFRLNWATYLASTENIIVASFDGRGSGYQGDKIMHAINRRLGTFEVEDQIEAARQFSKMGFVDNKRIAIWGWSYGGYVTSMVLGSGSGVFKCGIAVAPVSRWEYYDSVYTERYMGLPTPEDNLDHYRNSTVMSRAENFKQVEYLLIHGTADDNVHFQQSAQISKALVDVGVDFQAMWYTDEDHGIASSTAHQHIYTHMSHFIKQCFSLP

PACAP-27 (from UniProt P18509 132-158) (peptide)
Ki: 113 µM
